Measurements from article PMC10471779, “Antibody-mediated neutralization of galectin-3 as a strategy for the treatment of systemic sclerosis” (Nature Communications, 2023).
Positions count from the first letter of the chain named. Each block holds one binder with its values, some of them ahead of it.

Legend:
Conditions in all cases: both partners purified
[1] = biological target: T1, recombinant human galectin-3 carbohydrate recognition domain, His-tagged (hGal-3-CRD-His Nter) (human, UniProt P17931); experiment: ELISA; competition ELISA: hGal-3-CRD coated at 1 ug/mL, IgG 0.0006 to 780 nM for 1 h, washed, then asialofetuin at 8 ug/mL for 30 min; bound asialofetuin detected by HRP-labelled anti-asialofetuin antibody
T1 construct: galectin-3, human, carbohydrate recognition domain; also called CRD of hGal-3; source: recombinant, produced by Novalix (Illkirch, France); not shown: His, N-terminal, kept

[2] = biological target: T2, recombinant mouse galectin-3, full length, His-tagged (mGal-3-FL-His Nter) (Mus musculus, UniProt P16110); experiment: SPR; Biacore T-200, mAb captured on anti-human Fc CM5 surface, Gal-3 0.5 to 50 nM injected, single-cycle kinetics, HBS-P (10 mM HEPES, 150 mM NaCl, 0.05% P20), 25 C, 1:1 Langmuir fit
T2 construct: galectin-3, mouse, full length; source: recombinant, produced by Novalix (Illkirch, France); not shown: His, N-terminal, kept

[3] = biological target: T3, recombinant human galectin-3, full length, His-tagged (hGal-3-FL-His Nter) (Homo sapiens, UniProt P17931); experiment: ELISA; dose-response binding ELISA, IgG 0.0009 to 500 nM on immobilised hGal-3-FL and mGal-3-FL (hGal-14 in Supplementary Fig. 7b); detection by anti-hFab-HRP
T3 construct: galectin-3, human, full length; the SPR methods say only recombinant Gal-3 (Novalix); also called FL hGal-3; FL-Gal-3; source: recombinant, produced by Novalix (Illkirch, France); not shown: His, N-terminal, kept

[4] = biological target: T2, recombinant mouse galectin-3, full …; experiment: as above
human galectin-14 = biological target: T4, human galectin-14 (Homo sapiens, UniProt Q8TCE9); experiment: as above
T4 construct: galectin-14, human; also called hGal-14; Gal-14; source: bought: Novus Biologicals NBP1-50082

[5] = biological target: T5, recombinant human galectin-3, full-length (Homo sapiens, UniProt P17931); experiment: SPR; Biacore T-200; mAb captured (400-680 RU) on a CM5 chip with immobilised anti-human Fc mAb; Gal-3 0.5-50 nM injected, single-cycle kinetics, 210 s association, 600 s dissociation, 30 uL/min; HBS-P (10 mM HEPES, 150 mM NaCl, 0.05% P20), 25 °C; 1:1 Langmuir fit; duplicates
T5 construct: galectin-3 (Gal-3), human, full-length; the His tag is named for the Novalix protein in the ELISA methods; the SPR methods say only 'recombinant Gal-3 from multiple species (Novalix)'; also called human Gal-3 (FL); hGal-3 (FL); source: recombinant, produced by Novalix

[6] = biological target: T6, recombinant human galectin-3 carbohydrate recognition domain (Homo sapiens, UniProt P17931); experiment: as above
T6 construct: galectin-3 (Gal-3), human, carbohydrate recognition domain; the His tag is named in the ELISA methods, not in the SPR methods; also called hGal-3 (CRD); hGal-3-CRD-His Nter; source: recombinant, produced by Novalix

[7] = biological target: T7, recombinant dog galectin-3 carbohydrate recognition domain (Canis lupus familiaris, UniProt P38486); experiment: as above
T7 construct: galectin-3 (Gal-3), dog, carbohydrate recognition domain; also called dog Gal-3 (CRD); source: recombinant, Novalix

[8] = biological target: T8, recombinant rat galectin-3 carbohydrate recognition domain (Rattus norvegicus, UniProt P08699); experiment: as above
T8 construct: galectin-3 (Gal-3), rat, carbohydrate recognition domain; also called rat Gal-3 (CRD); source: recombinant, Novalix

[9] = biological target: T9, recombinant mouse galectin-3, full-length (Mus musculus, UniProt P16110); experiment: as above
T9 construct: galectin-3 (Gal-3), mouse, full-length; the His tag is named for the Novalix protein in the ELISA methods; the SPR methods say only 'recombinant Gal-3 from multiple species (Novalix)'; also called mouse Gal-3 (FL); mGal-3 (FL); source: recombinant, produced by Novalix
T9 sequence (P16110 whole entry): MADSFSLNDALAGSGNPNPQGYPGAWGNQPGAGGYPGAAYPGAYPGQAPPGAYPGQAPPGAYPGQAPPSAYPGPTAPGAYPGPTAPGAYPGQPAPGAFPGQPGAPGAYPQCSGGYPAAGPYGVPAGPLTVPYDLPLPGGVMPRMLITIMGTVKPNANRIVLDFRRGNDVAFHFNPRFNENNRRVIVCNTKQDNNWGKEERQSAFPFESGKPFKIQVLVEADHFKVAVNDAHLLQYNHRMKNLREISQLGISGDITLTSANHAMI

T5 sequence (P17931 whole entry): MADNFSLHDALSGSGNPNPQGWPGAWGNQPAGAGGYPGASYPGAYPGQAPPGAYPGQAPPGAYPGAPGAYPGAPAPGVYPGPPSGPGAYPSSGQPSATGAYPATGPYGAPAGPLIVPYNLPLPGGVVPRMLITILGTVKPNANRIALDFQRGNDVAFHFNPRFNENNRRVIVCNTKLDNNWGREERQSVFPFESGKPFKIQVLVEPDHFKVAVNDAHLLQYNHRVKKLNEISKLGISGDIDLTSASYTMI
T2 sequence (P16110 whole entry): as the sequence (P16110 whole entry) above
T3 sequence (P17931 whole entry): as the sequence (P17931 whole entry) above
T4 sequence (Q8TCE9 whole entry): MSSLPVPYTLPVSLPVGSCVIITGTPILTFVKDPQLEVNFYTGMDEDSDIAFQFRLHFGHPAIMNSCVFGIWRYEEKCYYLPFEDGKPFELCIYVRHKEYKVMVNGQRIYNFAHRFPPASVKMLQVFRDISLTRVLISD
T1 sequence (P17931 114-250): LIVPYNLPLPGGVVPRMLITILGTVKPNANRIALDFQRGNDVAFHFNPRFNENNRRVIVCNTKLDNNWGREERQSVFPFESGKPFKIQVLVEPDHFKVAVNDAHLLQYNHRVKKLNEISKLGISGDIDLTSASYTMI

B1: D11 anti-Gal-3 monoclonal antibody (hIgG1 format, LALA) (antibody, V domains shown)
VH: EVQLVESGGSLVKPGGSLRLSCAASGFTFSNYNMNWVRQAPGKGLEWISSIYGSSRYIYYADFVKGRFTISRDNAKNSLYLQMNSLRAEDTAVYYCVRSSYGGMDVWGRGTLVTVSS
VL: QSVLTQPASVSGSPGQSITISCAGTSSDVGGSYNVAWYQQHPGKAPKLMIYYDSYRPSGVSNRFSGSKSGNTASLTISGLQAEDEADYYCSSYTGYSTRVFGGGTKLEIK
notes: from scFv D11 (HuscI library, human framework 13R4); human IgG1 heavy-chain constant region, engineered with the double LALA mutation in the Fc region; IgG1 with LALA; also called D11 mAb; source: CHO-K1 cells (Evitria), transfected, purified (protein A, MabSelect SuRe)
- IC50 [1]: 2.18 nM
- Kd [2]: < 5 nM
- EC50 [3]: 0.37 nM
- EC50 [4]: 0.99 nM
- EC50 (human galectin-14): 59.9 nM

B2: E07 anti-Gal-3 monoclonal antibody (antibody, V domains shown)
VH: B1 VH with S50N, S100Y
VL: B1 VL with S32Y, N34S, A36S, Y55N
notes: human IgG1, LALA; also called E07 mAb; source: CHO-K1 cells (Evitria), purified (protein A, MabSelect SuRe)
- Kd [5]: 9 nM
- koff [5]: 0.0292 s⁻¹
- kon [5]: 3.24e+06 M⁻¹ s⁻¹
- Kd [6]: 14.4 nM
- koff [6]: 0.0377 s⁻¹
- kon [6]: 2.61e+06 M⁻¹ s⁻¹
- Kd [7]: 21.5 nM
- koff [7]: 0.016 s⁻¹
- kon [7]: 746000 M⁻¹ s⁻¹
- Kd [8]: 15 nM
- koff [8]: 0.0497 s⁻¹
- kon [8]: 3.31e+06 M⁻¹ s⁻¹
- Kd [9]: 4.14 nM
- koff [9]: 0.00407 s⁻¹
- kon [9]: 983000 M⁻¹ s⁻¹

Second part, the binder after the results:

- Kd [5]: 14.9 nM
- koff [5]: 0.0247 s⁻¹
- kon [5]: 1.66e+06 M⁻¹ s⁻¹
- Kd [6]: 26.4 nM
- koff [6]: 0.0428 s⁻¹
- kon [6]: 1.62e+06 M⁻¹ s⁻¹
- Kd [7]: 24.7 nM
- koff [7]: 0.0235 s⁻¹
- kon [7]: 948000 M⁻¹ s⁻¹
- Kd [8]: 8.55 nM
- koff [8]: 0.018 s⁻¹
- kon [8]: 2.11e+06 M⁻¹ s⁻¹
- Kd [9]: 2.8 nM
- koff [9]: 0.00178 s⁻¹
- kon [9]: 635000 M⁻¹ s⁻¹
B3: D11 anti-Gal-3 monoclonal antibody (antibody, V domains shown)
VH: B1 VH
VL: B1 VL
notes: human IgG1, LALA; also called D11 mAb; source: CHO-K1 cells (Evitria), purified (protein A, MabSelect SuRe)

- IC50 [1]: 1.5 nM
- Kd [2]: < 5 nM
- EC50 [3]: 0.07 nM
- EC50 [4]: 0.3 nM
- EC50 (human galectin-14): 90.6 nM
B4: E07 anti-Gal-3 monoclonal antibody (hIgG1 format, LALA) (antibody, V domains shown)
VH: B1 VH with S50N, S100Y
VL: B1 VL with S32Y, N34S, A36S, Y55N
notes: from scFv E07 (HuscI library, human framework 13R4); human IgG1 heavy-chain constant region, engineered with the double LALA mutation in the Fc region; IgG1 with LALA; also called E07 mAb; source: CHO-K1 cells (Evitria), transfected, purified (protein A, MabSelect SuRe)
